According to patent US20070111944A1 (published 2007):

B1: refolded dimeric VEGF-B167 (ligand)
chain: APVSQPDAPGHQRKVVSWIDVYTRATCQPREVVVPLTVELMGTVAKQLVPSCVTVQRCGGCCPDDGLECVPTGQHQVRMQILMIRYPSSQLGEMSLEEHSQCECRPKKKDSAVKPDSPRPLCPRCTQHHQRPDPRTCRCRCRRRSFLRCQGRGLELNPDTCRCRKLRR
notes: also called purified dimeric VEGF-B167

Legend:
[1] = target: chimeric receptor consisting of the extracellular and transmembrane domain of VEGFR1 fused to the cytoplasmic domain of gp130 (UniProt P17948); test: cell-based or functional assay
VEGF-R1/Fc = target: T1, VEGF-R1/Fc (human, UniProt P17948-2 27-758, limits assumed); test: competition ELISA on captured VEGF-R1/Fc; competitor VEGF-A165 at 10 ng/ml, detected with biotinylated anti-VEGF-A165; VEGF-A165 at 10 ng/ml; VEGF-R1/Fc captured on plate
T1 construct: Bought from R&D Systems; also called VEGF receptor 1; Flt-1; not shown: human immunoglobulin Fc domain
Experimental: 1. […] 2. […] 6. […] 7. Biotinylated anti-VEGF-A₁₆₅ (10 ng/ml in Buffer 20, 100 μl) was added and incubated for 1 hr. […] 8. […] 9. […] 10. […] 11.

VEGF-R2/Fc = target: T2, VEGF-R2/Fc (human, UniProt P35968 20-764); test: SPR (Biacore 2000), VEGF-B167 immobilised, receptor-Fc injected
T2 construct: Bought from R&D Systems; also called VEGF receptor 2; not shown: human immunoglobulin Fc domain
Experimental: For control purposes binding of the receptors to VEGF-A₁₆₅ was also monitored. Both VEGF-B₁₆₇ and VEGF-A₁₆₅ were individually immobilised to a sensorchip using NHS/EDC chemistry according to the manufacturer's instructions. Briefly, 35 μl of NHS and EDC was injected onto the sensorchip at a flow rate of 5 μl/min to activate the sensor surface and enable covalent coupling of either VEGF-A₁₆₅ or VEGF-B₁₆₇. […] Post coupling, diaminoethane (50 mM, pH 9.0) was used to block any unbound activated sites on the sensor surface. Concentrated dimeric VEGF-B₁₆₇ (200 μg/ml) was diluted (1:10) in 20 mM sodium acetate and immobilized onto a separate channel on the sensorchip. Post coupling, diaminoethane (50 mM, pH 9.0) was used to block any unbound activated sites on the sensor surface.
At the end of each run, the surface of the sensorchip was regenerated using 2 cycles of phosphoric acid (0.1 M, 30 μl) at a flow of 50 μl/min. […] Both were diluted into 0.1% w/v BSA in PBS as a stock solution (50 μg/ml, storage −20° C.).

Chain of chimeric receptor consisting of the extracellular and transmembrane domain of VEGFR1 fused to the cytoplasmic domain of gp130 (P17948 other isoform, or with tags, fused parts or gaps mutant limits assumed): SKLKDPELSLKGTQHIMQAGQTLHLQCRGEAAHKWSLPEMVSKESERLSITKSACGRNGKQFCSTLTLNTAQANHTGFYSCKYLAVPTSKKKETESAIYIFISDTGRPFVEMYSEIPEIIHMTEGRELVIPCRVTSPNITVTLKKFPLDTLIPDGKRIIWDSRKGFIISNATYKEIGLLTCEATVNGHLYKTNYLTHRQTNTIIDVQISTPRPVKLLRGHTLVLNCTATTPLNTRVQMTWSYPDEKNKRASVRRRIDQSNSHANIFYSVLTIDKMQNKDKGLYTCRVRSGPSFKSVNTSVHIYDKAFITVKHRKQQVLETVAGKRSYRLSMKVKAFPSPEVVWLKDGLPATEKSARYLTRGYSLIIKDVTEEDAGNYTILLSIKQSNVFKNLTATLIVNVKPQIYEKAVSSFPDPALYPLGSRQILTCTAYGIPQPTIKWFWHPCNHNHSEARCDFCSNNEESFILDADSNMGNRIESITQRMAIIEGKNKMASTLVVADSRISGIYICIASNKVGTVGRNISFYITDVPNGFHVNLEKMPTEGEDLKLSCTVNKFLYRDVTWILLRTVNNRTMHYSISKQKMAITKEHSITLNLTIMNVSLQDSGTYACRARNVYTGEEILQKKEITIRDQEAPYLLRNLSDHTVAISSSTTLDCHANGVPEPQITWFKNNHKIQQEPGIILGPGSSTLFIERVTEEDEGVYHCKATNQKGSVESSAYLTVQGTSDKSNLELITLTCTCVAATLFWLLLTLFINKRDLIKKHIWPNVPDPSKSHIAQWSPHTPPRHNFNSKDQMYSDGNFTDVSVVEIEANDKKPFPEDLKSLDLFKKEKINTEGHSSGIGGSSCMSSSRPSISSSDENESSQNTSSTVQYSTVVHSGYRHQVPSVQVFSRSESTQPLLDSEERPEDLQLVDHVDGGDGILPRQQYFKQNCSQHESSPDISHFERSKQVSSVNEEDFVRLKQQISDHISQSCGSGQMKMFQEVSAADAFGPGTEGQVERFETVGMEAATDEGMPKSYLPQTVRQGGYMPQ
T1 sequence (P17948 27-758 limits assumed, form in doubt): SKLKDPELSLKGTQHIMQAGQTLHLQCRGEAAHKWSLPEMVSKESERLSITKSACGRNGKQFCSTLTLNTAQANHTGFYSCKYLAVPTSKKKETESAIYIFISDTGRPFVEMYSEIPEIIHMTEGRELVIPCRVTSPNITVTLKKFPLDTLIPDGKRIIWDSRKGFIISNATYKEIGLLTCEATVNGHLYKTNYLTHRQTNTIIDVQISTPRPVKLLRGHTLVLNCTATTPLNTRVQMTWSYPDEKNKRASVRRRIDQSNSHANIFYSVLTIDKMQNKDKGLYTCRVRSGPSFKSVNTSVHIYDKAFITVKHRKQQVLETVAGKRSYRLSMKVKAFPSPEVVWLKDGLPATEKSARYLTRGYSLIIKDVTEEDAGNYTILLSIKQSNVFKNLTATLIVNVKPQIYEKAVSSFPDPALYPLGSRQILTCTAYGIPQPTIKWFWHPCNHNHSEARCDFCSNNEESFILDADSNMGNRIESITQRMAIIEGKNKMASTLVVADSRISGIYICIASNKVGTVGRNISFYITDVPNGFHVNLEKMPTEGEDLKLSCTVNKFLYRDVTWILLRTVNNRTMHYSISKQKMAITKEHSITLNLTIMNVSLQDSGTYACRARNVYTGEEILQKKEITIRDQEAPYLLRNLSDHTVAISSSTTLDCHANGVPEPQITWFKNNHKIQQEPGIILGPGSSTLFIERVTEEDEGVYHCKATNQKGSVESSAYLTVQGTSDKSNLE
T2 sequence (P35968 20-764 limits assumed): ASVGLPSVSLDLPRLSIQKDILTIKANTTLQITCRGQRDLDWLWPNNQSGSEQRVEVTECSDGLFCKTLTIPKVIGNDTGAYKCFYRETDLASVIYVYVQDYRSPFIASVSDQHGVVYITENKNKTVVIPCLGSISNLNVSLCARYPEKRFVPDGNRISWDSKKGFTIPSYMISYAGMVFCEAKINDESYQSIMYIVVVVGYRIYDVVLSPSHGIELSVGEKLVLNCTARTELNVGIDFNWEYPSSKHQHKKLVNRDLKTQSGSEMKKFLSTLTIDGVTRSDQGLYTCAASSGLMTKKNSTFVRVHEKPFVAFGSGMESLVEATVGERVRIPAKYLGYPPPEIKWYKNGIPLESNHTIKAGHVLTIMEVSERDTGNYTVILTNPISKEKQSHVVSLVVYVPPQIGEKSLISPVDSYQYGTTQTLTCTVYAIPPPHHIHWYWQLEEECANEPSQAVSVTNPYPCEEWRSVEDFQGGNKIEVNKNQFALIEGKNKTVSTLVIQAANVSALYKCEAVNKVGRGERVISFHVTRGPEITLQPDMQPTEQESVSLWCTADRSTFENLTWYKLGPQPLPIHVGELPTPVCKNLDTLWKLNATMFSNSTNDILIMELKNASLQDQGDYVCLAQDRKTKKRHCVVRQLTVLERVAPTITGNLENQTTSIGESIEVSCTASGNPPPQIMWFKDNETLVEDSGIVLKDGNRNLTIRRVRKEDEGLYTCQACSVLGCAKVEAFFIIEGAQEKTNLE

Molecule	luciferase reporter activity (ED50) [1]	IC50 (VEGF-R1/Fc)	binding result (VEGF-R2/Fc)
VEGF-A (from UniProt P15692 27-191) (ligand)	0.01 to 0.05 µg/mL	–	–
B1	–	~0.02 µg/mL	no binding (tested: 50 µg/ml stock diluted 1:10)
